Source: the DeepSol protein solubility set

Test: soluble on expression in E. coli; label from the status in PepcDB or PDB records

Soluble on expression in E. coli, soluble:
MEMRQPAVAGQFYPLRCENLENELKRCFEGLEIREQEVLGAVCPHAGYMYSGKVAAHVYATLPEADTYVIFGPNHTGYGSPVSVSRETWKTPLGNIDVDLELADGFLGSIVDADELGHKYEHSIEVQLPFLQYRFERDFKILPICMGMQDEETAVEVGNLLADLISESGKRAVIIASSDFTHYETAERAKEIDSEVIDSILNFDISGMYDRLYRRNASVCGYGPITAMLTASKKLGGSRATLLKYANSGDVSGDKDAVVGYAAIIVELEHHHHHH
MGSSHHHHHHSSGLVPRGSHMTATLGINGFGRIGRLVLRACMERNDITVVAINDPFMDVEYMAYLLKYDSVHGNFNGTVEVSGKDLCINGKVVKVFQAKDPAEIPWGASGAQIVCESTGVFTTEEKASLHLKGGAKKVIISAPPKDNVPMYVMGVNNTEYDPSKFNVISNASSTTNCLAPLAKIINDKFGIVEGLMTTVHSLTANQLTVDGPSKGGKDWRAGRCAGNNIIPASTGAAKAVGKVIPALNGKLTGMAIRVPTPDVSVVDLTCKLAKPASIEEIYQAVKEASNGPMKGIMGYTSDDVVSTDFIGCKYSSILDKNACIALNDSFVKLISWYDNESGYSNRLVDLAVYVASRGL
MLHTLHRSPWLTDFAALLRLLSEGDELLLLQDGVTAAVDGNRYLESLRNAPIKVYALNEDLIARGLTGQISNDIILIDYTDFVRLTVKHPSQMAW
MSLVKIKEVAMNIKINEIKMTPPTAFTPGQVIEEQEVISPSMLALQELQETTGAALYETMEEIGMALSGKLRENYKFTDAEKLERRQQALLRLIKQIQEDNGATLRPLTEENSDPDLQNAYQIIALAMALTAGGLSKKKKRDLQSQLDTLTAEEGWELAVFSLLELGEVDTATLSSLKRFMQQAIDNDEMPLSQWFRRVADWPDRCERVRILLRAVAFELSICIEPSEQSRLAAALVRLRRLLLFLGLEKECQREEWICQLPPNTLLPLLLDIICERWLFSDWLLDRLTAIVSSSKMFNRLLQQLDAQFMLIPDNCFNDEDQREQILETLREVKINQVLFEGHHHHHH
SALDTNYCFRNLEENCCVRPLYIDFRQDLGWKWVHEPKGYYANFCSGPCPYLRSADTTHSTVLGLYNTLNPEASASPCCVPQDLEPLTILYYVGRTPKVEQLSNMVVKSCKCS
MAHHHHHHMKSMRAVTMRAFGDVDVMHISEVTGVSLSRPSDVIIRVMAAGVNRADVSQRQGHYPPPKGSSEILGMEVSGVVEKVGENVKRFKEGDRVMALLTGGGYAEMAVAHEGSVMKIPEGYSFVEAAAIPEAFLTAWQALKLHGNLQKGQHMLFHAGASGVGTAALQLAEKYFRATAIATCSSGKVEFCKRFAKFVVDRSPDASGKCFSSKVRDAVKGETVNLIVDPVVGGTYLQEDGEVLAQDGKVVLLAFMGGAKVSLDVMPFFRKRASVIFSKLRDQTDEYKEALVRSFEEEVIPYMTRREIVPVVQCTYALEEVAAAHKLMENNKSNGKVILTVGKAE
MYIVNSNKSRGSSVERYIVSRLRDKGFAVIRAPASGSKRKDHVPDIIALKSGVIILIEVKSRKNGQKIYIEKEQAEGIREFAKRSGGELFLGVKLPKMLRFIKFDMLRQTEGGNYAIDLETVEKGMELEDLVRYVESKISRTLDSFL
MLSFTLRRAMSFTTRILKVRPESIQFVNDKPQISDNETLINLEIAAKELTTTHNAIGFPTETVYGLAGSALSDESVKSIYKAKNRPADNPLIVHISSIEQLKRKLINYEIPQVYLDLISHFWPGPLTILLPITKDSPISKLVTANQDTFAVRMPNHPVARALIAMSDTPIAAPSANASTRPSPTLAEHVYHDLNGKIPLILDGGACNVGVESTVIDGLVDPPMLLRPGGVSLEDIKRVGGKLWENIVVAKKTAGKLEPVKTPGMKYRHYSPTAKVVLFVNCGDGINAIENYLTNNKVDASTTKIALLKSKHFGEDHPHFIIKRLGTTGNEISHNLFKYLREVDEEDKVELIFVEGIDETNEGLAVMNRLSKAAMEVVNGGEA
MVVPGKNSTISPDYFTASQTSPLDMMKFPSPGSSKRYDNGGGIGLGIVAALEKSSIGINPVCHTGAGSKGFDLARYSKRFQFAAGIDLSDSEEYTCVTTRDGLTKVYYKEEEFEFGHNLLNGDQRWRKPIEIAEESPAKERRVLRDCPDFLTSCCLCKKKLQGKDIYMYKGDEGFCSKECRSLKIMEDSLKEQHKLTSVEVLTGEEIASPGIFLI
MSLEALSSYQQRNNQQLDQWLNRIPFQTLPLIEAMRYGLLLGGKRARPYLVYITGQMLGCELSDLDTPASAVECIHAYSLIHDDLPAMDDDELRRGKPTCHIQFDEATAILTGDALQTLAFTILAEGDLSAAGETQRVAMLQALAEASGAQGMCLGQALDLAAENRLISLEELETIHRNKTGALMRCAIRLGALAAGEKGRAMLPHLDRYAEAVGLAFQVQDDILDIISDTETLGKPQGSDQELNKSTYPALLGLEGAQQKAHTLLQEALLALEAIPYNTEHLEEFARYVVERKNEGHHHHHH
QGGPVEILPYLFLGSCSHSSDLQGLQACGITAVLNVSASCPNHFEGLFRYKSIPVEDNQMVEISAWFQEAIGFIDWVKNSGGRVLVHSQAGISRSATICLAYLMQSRRVRLDEAFDFVKQRRGVISPNFSFMGQLLQFETQVLCH

Soluble on expression in E. coli, not soluble:
MGSDKIHHHHHHMKPDLSSHLVLGERPDGRTLITARWVLAWRDGGHALIPDGEIVVDRNEVLYAGPRFEGDVARRIDFGTALVSPGLIDLDALSDLDTYLLVHDNQPGWAKGRIWPRSYVESGPYEMYSAEELAFQKRFAFGLLLLNGITTAAPIASLYYRQWAETVAEFEAAADAAGDLGLRVFLSPAYRSGGMILEGPGRIEPAFDEPRGLQGLADAIDFIERNHGRHNGLVNGMLAPDRIETCTLHLLQRTMAAARDLDCRVRIHMAQGNLELETMRRLHGVSAPQWLADHGLMSERLIAPHGTYASPQDLQLYAQHGVSIAHSPLVSARMGSILNSFAACRSLGINIGMATDTAPPDMLMNLLVGLIACRIGEKTSDAVFSKDLFDAATLGGAKALGRRDLGRLAAGAKADIAVFRLDDVHMTPSVDPVTTLVVGGSGKVTQAVFVDGRLSMLDGKVAGIDMIAAREQAQQQYDGLIAKYPDRSWRHPPVGKIFSPSYPVWKIQ
MRVRNIQGEDYVKIYSVLNDWWGGRDMAVMLPKLFFIHFQETSFIIEEEGETLGFLCGFFSQTHKEEAYVHFIGVNPKYRRRGIASTLYSYFFDVARANNRKVVKAITSPVNKKSIQFHREIGFQIEAGDDEIEGVSVHTNYDGNGGSRVLFLKNV
MNNISIPFEKLGNAKKVGIQLPDGLKRRAIEIAQLIEDRGYDVVISGETSFGACDIDLSILEVVDVLLHFAHTPILKDERVVYVPYFIEYNPKIDLKVDERRIALIATAQYVHKLPEVAEWLRGKGYEVEIGSPRGRVVYPGQVLGCNYSVLRGSNADAVVFIGDGLFHATGAAMYTKKKVYAYNPLSGELKEVDARNFEKKRYLEVSKCVGKSKAGILVSSKPGQRRLRLAEKLKKIGRENGLFCSIIYLNNVRAEELYNLPFDFYVNTACPRIAYDDGARFEKPVISPQEFELLLGLRESIAMDEIEF
MAESSVTFTISTDGGGKINVIYDGSHKTNATDSSVNSESVTPCESLDTTKESEMLKAGLRRRAPSISTESSVTFSSISDFEDLNLRCSTPLVCDDDTNSNSDASFASCVSEVSEMSIKTTSSQETVTSASGLKESKPMEKMEEKREVRMKSYEQVNKERYGGWTEVVNWRAAKKPQSVAPSQSSTKKTLSNNGTTTDHGITSASRRTPNSTHVASKPQLNTRATSVQGSAPSSGSKSRIPSLANRQVYNNSPQLFHPFPPSRCNSSNGSYASTVTASPSVASYSPNPSQPPPPVAVAKLNMKMTITTDSNGKMSVHFSNSNSSESWSINGLLGNSDKINVSKMF
GPGSEHLTTVAAPFTCPIRRTVFAEGRRTIIFFRNIDATTAVFHQLRSAGFAVSLLHASLPYKVRKEMYADFASGRTNILCATDVAARGLDLHVDMVINFDVPTNALAYLSRSGRTARMGREGQVLNLYNKHQGVIVSAIKAFLKDNLPMEGLTNRKADMMQPRYAEWRTHKINALARSYVSLITR
MDSARALIARGWGVSLVSRCLRVSRAQLHVILRRTDDWMDGRRSRHTDDTDVLLRIHHVIGELPTYGYRRVWALLRRQAELDGMPAINAKRVYRLMRQNALLLERKPAVPPSKRAHTGRVAVKESNQRWCSDGFEFCCDNGERLRVTFALDCCDREALHWAGTTGGFNSETVQDVMLGAVERRFGNDLPSSPVEWLTDNGSCYRANETRQFARMLGLEPKNTAVRSPESNGIAESFVKTIKRDYISIMPKPDGLTAAKNLAEAFEHYNEWHPHSALGYRSPREYLRQRACNGLSDNRCLEI
MGSDKIHHHHHHPLGSPEAGDISEERQAFLRLTAVYSVMKDFRYTWSMQCFGDVLSNDATYSGSSNDAQTFTLLENYQYQADHTEILNKYRYSYQCINKANLFIRDMEMADDALFSKYDKEQMIGEAKFIRAYTYFELVKTFGGVPCYTGVLDLDHERLGRASVEEIYSVIEQDLNDAVSVLPKKSEVANYESSYAGRITKGAAIAMQTRIYLYEKKYDEVKKAFEKFQNECGGEYSLVAPEDYTWQFSLDGEHCSSSILEVNMYNSSTQSSYNVNNGNRHVLMSMPRNMTIGFGCAQPTQALADAYDAEGDVIRKKTTLLSTEEAIEIETAAKGDVAPVTDDRTGWYNRKLYLAPGQREENRGNNQPTNLRLIRLAEVYLNYAEACYFSGDIANAQKYLNEVRSHVNLAPKNHTGSQLFEDIMNERHLEFGMEGFRFFDVVRVGWGEKVFNGTKKAEFGAKTPFSAGAEVLPIPQTEIDISDGLITN
MGSDKIHHHHHHMNRKLIQIDQLKNQLTQYRPLSESEVKRLREEFIIESSYNSNAIEGNTITLRETVLILKEGMTIAEKPLREHLDIIGFKDAFNYIYELVANNEPLSERTIKDIHSLVLMNNAEGRGVYRKIPVRILGAENEPTAPYLIAEEMQSLIEKYQQKLTALHPIEAISWLHLAFESIHPFIDGNGRTGRLLINFELLKHGYLPVDIKFTHRANYYQCFDDFHKNQQDISRLVELISRYELTELERYLAILEQRT
MSRDSGNDSEVAVTHGEVQEITEENPEIGSMHITQETDISDAPETNTDSSRQRTESTTSVSSESWQNNDEMMSNLRRAQRLLDDGATPLQIIQQIFPDFNASRIATMSENAHFAILSDLLERAPVRQKLTNYNSLADAVELFKTKKHILVLTGAGVSVSCGIPDFRSKDGIYARLRSEFPDLPDPTAMFDIRYFRENPAPFYNFAREIFPGQFVPSVSHRFIKELETSGRLLRNYTQNIDTLEHQTGIKRVVECHGSFSKCTCTRCGQKYDGNEIREEVLAMRVAHCKRCEGVIKPNIVFFGEDLGREFHQHVTEDKHKVDLIVVIGSSLKVRPVALIPHCVDKNVPQILINRESLPHYNADIELLGNCDDIIRDICFSLGGSFTELITSYDSIMEQQGKTKSQKPSQNKRQLISQEDFLNICMKEKRNDDSSDEPTLKKPRMSVADDSMDSEKNNFQEIQKHKSEDDDDTRNSDDILKKIKHPRLLSITEMLHDNKCVAISAHQTVFPGAECSFDLETLKLVRDVHHETHCESSCGSSCSSNADSEANQLSRAQSLDDFVLSDEDRKNTIHLDLQRADSCDGDFQYELSETIDPETFSHLCEEMRI
